# According to patent EP4582451A1:
# How the values were obtained:
# [1] = target: human thyroid-stimulating hormone receptor (TSHR) (human) (UniProt P16473); assay: flow cytometry (FACS), 293 cells overexpressing human TSHR; negative control
# [2] = target: monkey thyroid-stimulating hormone receptor (TSHR) (monkey); assay: flow cytometry (FACS), 293 cells overexpressing monkey TSHR; negative control
# [3] = target: mouse thyroid-stimulating hormone receptor (TSHR) (mouse) (UniProt P47750); assay: flow cytometry (FACS), 293 cells overexpressing mouse TSHR; negative control
# Chain of mouse thyroid-stimulating hormone receptor (TSHR) (mouse) (P47750 22-764): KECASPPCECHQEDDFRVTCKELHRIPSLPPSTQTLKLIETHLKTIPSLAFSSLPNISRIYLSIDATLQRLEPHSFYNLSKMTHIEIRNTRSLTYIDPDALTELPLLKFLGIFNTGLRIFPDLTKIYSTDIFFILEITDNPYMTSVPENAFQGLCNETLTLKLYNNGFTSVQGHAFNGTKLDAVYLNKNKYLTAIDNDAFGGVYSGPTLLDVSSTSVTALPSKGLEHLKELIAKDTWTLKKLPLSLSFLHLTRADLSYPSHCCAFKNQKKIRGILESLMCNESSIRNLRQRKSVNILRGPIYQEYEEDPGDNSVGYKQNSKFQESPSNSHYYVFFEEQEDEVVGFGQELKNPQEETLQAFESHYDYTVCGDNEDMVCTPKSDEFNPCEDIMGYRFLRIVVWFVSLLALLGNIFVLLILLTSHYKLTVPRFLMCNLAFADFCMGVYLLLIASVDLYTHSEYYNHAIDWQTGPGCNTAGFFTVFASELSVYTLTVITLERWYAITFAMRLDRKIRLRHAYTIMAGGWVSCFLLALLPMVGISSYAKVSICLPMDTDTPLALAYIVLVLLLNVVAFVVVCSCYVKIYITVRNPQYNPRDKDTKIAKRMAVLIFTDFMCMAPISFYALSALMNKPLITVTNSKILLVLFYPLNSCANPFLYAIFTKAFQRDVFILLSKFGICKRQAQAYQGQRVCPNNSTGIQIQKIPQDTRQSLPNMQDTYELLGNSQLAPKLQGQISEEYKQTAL
# Chain of monkey thyroid-stimulating hormone receptor (TSHR) (monkey) (A0A2K5 entry or part of it limits assumed, form in doubt): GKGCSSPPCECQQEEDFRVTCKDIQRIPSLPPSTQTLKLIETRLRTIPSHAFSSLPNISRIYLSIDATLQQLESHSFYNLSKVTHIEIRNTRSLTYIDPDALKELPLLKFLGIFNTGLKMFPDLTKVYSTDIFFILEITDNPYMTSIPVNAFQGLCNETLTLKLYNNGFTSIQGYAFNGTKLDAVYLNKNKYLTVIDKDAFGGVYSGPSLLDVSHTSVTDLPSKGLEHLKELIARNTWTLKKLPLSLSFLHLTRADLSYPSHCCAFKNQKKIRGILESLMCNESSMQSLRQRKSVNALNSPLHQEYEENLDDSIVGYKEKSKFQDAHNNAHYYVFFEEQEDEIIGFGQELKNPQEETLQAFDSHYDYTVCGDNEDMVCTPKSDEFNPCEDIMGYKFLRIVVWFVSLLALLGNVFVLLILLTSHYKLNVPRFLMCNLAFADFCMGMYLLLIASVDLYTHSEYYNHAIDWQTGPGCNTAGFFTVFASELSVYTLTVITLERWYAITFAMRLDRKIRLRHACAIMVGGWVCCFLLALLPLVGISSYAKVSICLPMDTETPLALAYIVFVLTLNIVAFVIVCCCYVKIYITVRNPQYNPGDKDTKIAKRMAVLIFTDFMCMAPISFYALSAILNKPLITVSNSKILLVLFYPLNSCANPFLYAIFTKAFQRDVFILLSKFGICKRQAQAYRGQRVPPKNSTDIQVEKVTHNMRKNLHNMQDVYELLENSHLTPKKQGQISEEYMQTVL
# Chain of human thyroid-stimulating hormone receptor (TSHR) (human) (P16473 21-764): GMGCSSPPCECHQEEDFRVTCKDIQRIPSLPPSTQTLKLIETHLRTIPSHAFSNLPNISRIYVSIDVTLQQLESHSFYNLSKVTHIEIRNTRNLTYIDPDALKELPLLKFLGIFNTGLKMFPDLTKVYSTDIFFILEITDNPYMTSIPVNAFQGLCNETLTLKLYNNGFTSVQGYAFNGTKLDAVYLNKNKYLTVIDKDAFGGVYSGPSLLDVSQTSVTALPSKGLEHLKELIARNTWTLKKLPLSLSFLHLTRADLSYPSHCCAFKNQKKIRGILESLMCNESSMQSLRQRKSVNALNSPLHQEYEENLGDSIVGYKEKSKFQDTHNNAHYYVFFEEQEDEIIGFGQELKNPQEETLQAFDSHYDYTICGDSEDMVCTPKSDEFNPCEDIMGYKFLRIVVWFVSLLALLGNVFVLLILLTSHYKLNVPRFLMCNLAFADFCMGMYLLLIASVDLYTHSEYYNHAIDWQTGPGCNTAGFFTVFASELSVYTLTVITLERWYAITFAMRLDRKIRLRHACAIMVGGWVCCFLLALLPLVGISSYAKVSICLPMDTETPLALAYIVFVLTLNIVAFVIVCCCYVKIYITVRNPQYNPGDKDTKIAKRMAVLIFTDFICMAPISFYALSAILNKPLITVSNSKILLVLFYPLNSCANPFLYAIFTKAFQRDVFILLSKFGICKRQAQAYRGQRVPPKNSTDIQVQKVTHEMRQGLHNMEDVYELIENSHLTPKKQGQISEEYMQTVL
Max MFI [1],Max MFI [2],Max MFI [3],Substance
3590,3560,2130,hIgG1 negative control (Biointron B117901) (antibody)
1690,1770,1530,hIgG4 negative control (Biointron B107804) (antibody)
